# Experimental data from PMC4891089, “The transcription factor GATA1 and the histone methyltransferase SET7 interact to promote VEGF-mediated angiogenesis and tumor growth and predict clinical outcome of breast cancer” (Oncotarget, 2016).
# Biological target: T1, His-tagged GATA1 (UniProt P15976 1-413)
# T1 construct: GATA1; also called purified His-tagged GATA1 protein; source: His fusion from pET-28a, expressed and purified according to the manufacturers' instructions (Qiagen)
# Assay: pull-down; GST pull-down: purified His fusion protein incubated with GST fusion protein bound to GST beads for 4 h at 4°C; immunoblot
# Conditions: both partners purified
# T1 sequence (P15976 whole entry, the tested form may be a part): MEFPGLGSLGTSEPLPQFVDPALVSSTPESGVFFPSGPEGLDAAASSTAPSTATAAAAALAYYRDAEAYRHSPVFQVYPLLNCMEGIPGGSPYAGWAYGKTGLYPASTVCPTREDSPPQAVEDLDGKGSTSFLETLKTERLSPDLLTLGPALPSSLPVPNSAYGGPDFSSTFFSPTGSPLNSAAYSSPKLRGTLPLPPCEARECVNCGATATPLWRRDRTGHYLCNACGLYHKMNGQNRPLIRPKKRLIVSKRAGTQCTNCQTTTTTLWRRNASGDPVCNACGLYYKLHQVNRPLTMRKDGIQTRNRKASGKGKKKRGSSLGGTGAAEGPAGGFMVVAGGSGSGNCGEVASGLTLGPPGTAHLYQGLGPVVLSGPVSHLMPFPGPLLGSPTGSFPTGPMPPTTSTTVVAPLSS
binder,measurement,value
"GST-SET7 (enzyme, UniProt Q8WTS6 1-366, looked up, SET7 (SETD7); also called purified GST-SET7; source: GST fusion from pGEX-KG, expressed and purified according to the manufacturers' instructions (Amersham Pharmacia)) MDSDDEMVEEAVEGHLDDDGLPHGFCTVTYSSTDRFEGNFVHGEKNGRGKFFFFDGSTLEGYYVDDALQGQGVYTYEDGGVLQGTYVDGELNGPAQEYDTDGRLIFKGQYKDNIRHGVCWIYYPDGGSLVGEVNEDGEMTGEKIAYVYPDERTALYGKFIDGEMIEGKLATLMSTEEGRPHFELMPGNSVYHFDKSTSSCISTNALLPDPYESERVYVAESLISSAGEGLFSKVAVGPNTVMSFYNGVRITHQEVDSRDWALNGNTLSLDEETVIDVPEPYNHVSKYCASLGHKANHSFTPNCIYDMFVHPRFGPIKCIRTLRAVEADEELTVAYGYDHSPPGKSGPEAPEWYQVELKAFQATQQK",binding result,binds
